Like-named read-outs stand apart in the source and are kept apart here.
Key:
Hfq wt [1] = biological target: T1, Hfq wt (Escherichia coli, UniProt P0A6X3 1-102); test: filter binding
Hfq Y25D (distal face) [2] = biological target: T2, Hfq Y25D (distal face) (Escherichia coli, UniProt P0A6X3 1-102, Y25D); test: filter binding
Hfq K56A (proximal face) = Hfq K56A (proximal face) (Escherichia coli, UniProt P0A6X3 1-102, K56A); test: filter binding
Hfq R16A (rim) [3] = biological target: T3, Hfq R16A (rim) (Escherichia coli, UniProt P0A6X3 1-102, R16A); test: filter binding
Hfq wt [4] = biological target: T1, Hfq wt; test: competition
Hfq wt [5] = biological target: T1, Hfq wt; test: competition; remark: listed apart in the source
Hfq R16A (rim) [6] = biological target: T3, Hfq R16A (rim); test: filter binding; remark: listed apart in the source
Hfq Y25D (distal face) [7] = biological target: T2, Hfq Y25D (distal face); test: filter binding; remark: listed apart in the source
Hfq wt [8] = biological target: T1, Hfq wt; test: filter binding; remark: listed apart in the source
Hfq R16A (rim) [9] = biological target: T3, Hfq R16A (rim); test: filter binding; remark: listed apart in the source
Hfq wt [10] = biological target: T1, Hfq wt; test: filter binding; remark: listed apart in the source
Hfq Y25D (distal face) [11] = biological target: T2, Hfq Y25D (distal face); test: filter binding; remark: listed apart in the source
Hfq wt [12] = biological target: T1, Hfq wt; test: filter binding; remark: listed apart in the source
Hfq Y25D (distal face) [13] = biological target: T2, Hfq Y25D (distal face); test: EMSA
Hfq wt [14] = biological target: T1, Hfq wt; test: filter binding; remark: listed apart in the source
Hfq R16A (rim) [15] = biological target: T3, Hfq R16A (rim); test: filter binding; remark: listed apart in the source
Hfq Y25D (distal face) [16] = biological target: T2, Hfq Y25D (distal face); test: filter binding; remark: listed apart in the source
Hfq Y25D (distal face) [17] = biological target: T2, Hfq Y25D (distal face); test: filter binding; remark: listed apart in the source
Hfq R16A (rim) [18] = biological target: T3, Hfq R16A (rim); test: filter binding; remark: listed apart in the source
Hfq wt [19] = biological target: T1, Hfq wt; test: filter binding; remark: listed apart in the source

B1: AgvB (structured_RNA)
RNA: GGCGAUAACACAACAAUAUCAGUAUCUCAUGCUAUUGCCCGAACCCAUUCGGGCAUUUUU
Kd (Hfq wt [1]): 0.38 ± 0.06 nM
Kd (Hfq Y25D (distal face) [2]): 0.13 ± 0.003 nM
Kd (Hfq K56A (proximal face)): 27.2 ± 2.4 nM
Kd (Hfq R16A (rim) [3]): 2.7 ± 0.12 nM
IC50 (Hfq wt [4]): 9.9 ± 2.7 nM
IC50 (Hfq wt [5]): 3.2 ± 1.4 nM

B2: 3'ETSleuZ (structured_RNA)
RNA: GGCCCGGAUGGUGGAAUCGGUAGACACAAGGGAUUUAAAAUCCCUCGGCGUUCGCGCUGUGCGGGUUCAAGUCCCGCUCCGGGUACCAUGGGAAAGAUAAGAAUAAAAUCAAAGCAAUAAGCAGUGUCGUGAAACCACCUUCGGGUGGUUUUUUU
binding result (Hfq R16A (rim) [6]): binds
Kd (Hfq Y25D (distal face) [7]): 0.34 ± 0.18 nM
Kd (Hfq wt [8]): 0.22 ± 0.008 nM
IC50 (Hfq wt [4]): 39 ± 7.3 nM
IC50 (Hfq wt [5]): 2.8 ± 0.35 nM

B3: GcvB (structured_RNA)
RNA: GACUUCCUGAGCCGGAACGAAAAGUUUUAUCGGAAUGCGUGUUCUGGUGAACUUUUGGCUUACGGUUGUGAUGUUGUGUUGUUGUGUUUGCAAUUGGUCUGCGAUUCAGACCAUGGUAGCAAAGCUACCUUUUUUCACUUCCUGUACAUUUACCCUGUCUGUCCAUAGUGAUUAAUGUAGCACCGCCUAAUUGCGGUGCUUUUUUU
binding signal (Hfq R16A (rim) [9]): 30 fold weaker than wt Hfq
Kd (Hfq wt [10]): < 1 nM
Kd (Hfq Y25D (distal face) [11]): < 1 nM
IC50 (Hfq wt [4]): 23 ± 5.2 nM

B4: 3'ETSleuZ-U4 (structured_RNA)
RNA: GGCCCGGAUGGUGGAAUCGGUAGACACAAGGGAUUUAAAAUCCCUCGGCGUUCGCGCUGUGCGGGUUCAAGUCCCGCUCCGGGUACCAUGGGAAAGAUAAGAAUAAAAUCAAAGCAAUAAGCAGUGUCGUGAAACCACCUUCGGGUGGUUUU
binding result (Hfq wt [12]): binds

B5: RybB (structured_RNA)
RNA: GGCCACUGCUUUUCUUUGAUGUCCCCAUUUUGUGGAGCCCAUCAACCCCGCCAUUUCGGUUCAAGGUUGAUGGGUUUUUU
binding result (Hfq Y25D (distal face) [13]): binds

B6: AgvB-U9 (structured_RNA)
RNA: GGCGAUAACACAACAAUAUCAGUAUCUCAUGCUAUUGCCCGAACCCAUUCGGGCAUUUUUUUUU
Kd (Hfq wt [14]): 0.18 ± 0.02 nM
Kd (Hfq R16A (rim) [15]): 0.19 ± 0.02 nM
Kd (Hfq Y25D (distal face) [16]): 0.12 ± 0.016 nM

B7: AgvB-U0 (structured_RNA)
RNA: GGCGAUAACACAACAAUAUCAGUAUCUCAUGCUAUUGCCCGAACCCAUUCGGGCA
Kd (Hfq Y25D (distal face) [17]): 21 ± 8 nM
Kd (Hfq R16A (rim) [18]): 3.9 ± 0.76 nM
Kd (Hfq wt [19]): 1.75 ± 0.6 nM

Source: paper doi:10.1101/2021.04.25.441314
